According to PMC3411048 (The Journal of Biological Chemistry, 2012):
Substitutions are numbered along the chain they refer to. Square brackets hold non-standard residues; d marks the D form. Ends that are not written are not given here. pY = N[C@@H](Cc1ccc(OP(=O)(O)O)cc1)C(=O)O

Legend:
SHP2 = conditions: ref [11], [36]; cited from earlier work
[1] = tested on: N-SH2 domain of the phosphatase; conditions: phosphorylated tyrosine of N-terminal portion; ref [36]; cited from earlier work
[2] = Phosphopeptide array binding analysis; conditions: Two Sample Logo, peptide array, GST-tagged N-SH2 domain 1 μg/ml

For “GGGGDIT(pY)ADLNLPKGKKPAPQAAEPNNHTE(pY)ASIQTS [BTAM peptide]”, the “activation of SHP2” value (SHP2) is given as “previously demonstrated to activate SHP2”.

In the case of “GGGGDIT[pY]ADLNLPKGKK [N-terminal portion of the BTAM peptide]”, the “binding to N-SH2 domain” value [1] is given as “known to bind specifically the N-SH2 domain of the phosphatase”.

B1: wild-type domain: isolated wild-type N-SH2 domain (residues 6–103), polyHis- or GST-tagged (protein)
chain: WFHPNITGVEAENLLLTRGVDGSFLARPSKSNPGDFTLSVRRNGAVTHIKIQNTGDYYDLYGGEKFATLAELVQYYMEHHGQLKEKNGDVIELKYPLN
modifications: left off: polyHis, end not stated, kept
For B1, the “phosphopeptide positions mediating binding specificity (from pY)” value [2] was −2, −1, +1, +2, and +3 from the phosphotyrosine.

B2: N-SH2^Lys76 (protein)
chain: B1 chain with E71K
modifications: left off: GST, end not stated, kept
With B2 the “phosphopeptide positions mediating binding specificity (from pY)” value [2] was “Those positions were found to bear the highest information content”.

B3: N-SH2^Cys63 (protein)
chain: B1 chain with Y58C
modifications: left off: polyHis, end not stated, kept
For B3, the “phosphopeptide positions mediating binding specificity (from pY)” value [2] was “Those positions were found to bear the highest information content”.

B4: N-SH2^Asp62 (protein)
chain: B1 chain with Y57D
modifications: left off: polyHis, end not stated, kept
For B4, the “phosphopeptide positions mediating binding specificity (from pY)” value [2] was “Those positions were found to bear the highest information content”.
